Measured values taken from patent US11912782B2, “BCMA monoclonal antibody-drug conjugate” (MedImmune, LLC, priority 2017, dated 2024).
Entries after “also recorded” stand apart in the source; their conditions may differ.

Columns and labels:
[1] = biological target: T1, monomeric human sBCMA (Homo sapiens, UniProt Q02223); experiment: Kinetics/affinity measurement by SPR (BioRad ProteOn XPR36), antibody captured by anti-Fc, sBCMA flowed over; assay type: binding; details: sBCMA 100-6.25 nM
T1 construct: is comprised of the entire extracellular domain of the molecule; purchased GenScript
T1 sequence (Q02223 1-54 limits assumed): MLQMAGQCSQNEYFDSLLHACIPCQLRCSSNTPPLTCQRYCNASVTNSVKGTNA
Method: The binding of 15B2GL monoclonal antibody and optimized clones I09, L15, P10, N22, and M02 (described in Example 1) was assessed using monomeric human sBCMA (GenScript, Piscataway, N.J.) using a ProteOn™ XPR36 instrument (Bio-Rad, Hercules, Calif.). The binding of J6M0 also was assessed for comparison. Standard amine coupling was used to immobilize 25 μg/ml anti-Fc polyclonal antibody (Jackson ImmunoResearch, West Grove, Pa.) prepared in 10 mM sodium acetate buffer (pH 4.5) to the surface of a ProteOn™ GLC biosensor chip (Bio-Rad, Hercules, Calif.) pre-activated with 20 mM EDAC (1-ethyl-3-(3-dimethylaminopropyl)carbodiimide hydrochloride) and 5 mM Sulfo-NHS (N-hydroxysulfosuccinimide) at a density of ˜200-600 resonance units (RU). 15B2GL, I09, L15, P10, N22, M02, and J6M0 were subsequently injected at a concentration of 1 μg/ml for capture by the immobilized anti-Fc polyclonal antibody. The sensorgram was recorded by flowing two-fold serial dilutions of sBCMA prepared in PBS (pH 7.4) with 0.005% (v/v) Tween®-20, ranging from 100-6.25 nM, over the captured surface for 150 seconds at 75 μL/minute with dissociation time of 600 seconds. ProteOn™ data analysis software was used to analyze the data.

[2] = tested on: cynomolgus monkey BCMA; experiment: FACS binding to Ad293 cells stably expressing cynomolgus BCMA; details: Ad293 cells expressing cynoBCMA
Method: (§1) Antibodies 4679, 756, and 15B2GL (as described below) were analyzed by FACS to evaluate binding of antibodies to human BCMA, cynomolgus monkey BCMA, TACI, and BAFF-R using recombinant forms of the receptors stably expressed on Ad293 cells. Binding assays were performed by incubating antibodies 4679, 756, and 15B2GL with 200,000 cells at 4° C. for 45 minutes followed by two washes with PBS+2% FBS. Cells were then incubated with Alexa-Fluor® 647-labeled secondary antibodies at 4° C., followed by two washes in PBS+2% FBS. Anti-BAFF-R, anti-TACI, and anti-human BCMA-APC labeled antibodies were added according to manufacturer's recommended dilution in control wells. Cells were resuspended in 200 uL PBS+2% FBS+DAPI and antibody binding to live cells was analyzed using a Becton Dickinson™ Biosciences LSRII cytometer.

[3] = biological target: T2, BAFF-R (Homo sapiens, UniProt Q96RJ3); experiment: FACS binding to Ad293 cells stably expressing BAFF-R
T2 construct: expressed in transfected cells
T2 sequence (Q96RJ3 1-184): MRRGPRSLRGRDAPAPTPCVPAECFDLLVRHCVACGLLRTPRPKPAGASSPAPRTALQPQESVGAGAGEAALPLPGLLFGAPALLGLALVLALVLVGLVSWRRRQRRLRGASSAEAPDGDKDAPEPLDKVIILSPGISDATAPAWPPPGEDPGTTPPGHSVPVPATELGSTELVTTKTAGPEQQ
Method: as §1

[4] = biological target: T3, TACI (Homo sapiens, UniProt O14836); experiment: FACS binding to Ad293 cells stably expressing TACI
T3 construct: expressed in transfected cells
T3 sequence (O14836 1-293): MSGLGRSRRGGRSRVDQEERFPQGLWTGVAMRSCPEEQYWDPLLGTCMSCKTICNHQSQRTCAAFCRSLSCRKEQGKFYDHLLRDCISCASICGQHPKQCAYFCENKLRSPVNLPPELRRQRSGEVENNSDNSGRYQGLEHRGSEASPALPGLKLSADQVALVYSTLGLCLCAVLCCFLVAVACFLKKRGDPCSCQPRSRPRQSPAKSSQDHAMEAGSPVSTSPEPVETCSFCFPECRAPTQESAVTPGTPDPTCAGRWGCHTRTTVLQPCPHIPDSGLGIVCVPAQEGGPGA
Method: as §1

[5] = tested on: H929 multiple myeloma cells; experiment: Internalization by FACS on H929 cells; assay type: cell-based; details: compared to J6M0 and the LO antibodies
Method: The ability of the 15B2GL antibody and LO clones of 15B2GL to bind, internalize, and kill H929 multiple myeloma cells in vitro was assessed using Fab-ZAP and by FACS binding to endogenous BCMA expressed on cell lines as described above. Briefly, antibodies were incubated with 200,000 cells for 30 minutes at 4° C. followed by two washes with PBS+2% FBS. Cells were resuspended in 100 uL cold PBS+2% FBS and kept at 4° C. At certain timepoints, cells were washed and resuspended in warm RPMI+10% FBS and placed into a 37° C. incubator, 5% CO2. At the end of the experiment, cells were washed and then incubated with Alexa-Fluor® 647-labeled secondary antibodies at 4° C., followed by two washes in PBS+2% FBS. Cells were resuspended in 200 μL PBS+2% FBS+DAPI and antibody binding to live cells was analyzed using a Becton Dickinson Biosciences LSRII cytometer.

B1: 15B2GL: germline form of anti-BCMA monoclonal antibody 15B2; VH SEQ ID NO: 7, VL SEQ ID NO: 8 (antibody, V domains shown)
VH: EVQLVESGGGLVKPGGSLRLSCAASGFTFRSYSMNWVRQAPGKGLEWVSSISGSSNYIYYADSVKGRFTISRDNAKNSLYLQMNSLRAEDTAVYYCARGGNYYVEYFQYWGQGTLVTVSS
VL: EIVLTQSPGTLSLSPGERATLSCRASQYISSNYLAWYQQKPGQAPRLLIYGASNRATGIPDRFSGSGSGTDFTLTISRLEPEDFAVYYCQQYGSSPITFGQGTKLEIK
[1]
  Koff: 2.27E−02
  Kon: 3.73E+05
[2]
  Cynomolgus cross-reactivity: cynomolgus cross-reactive; also recorded: cyno-cross reactive
[3]
  Binding to BAFF-R: did not bind
[4]
  Binding to TACI: did not bind
[5]
  Internalization: unique and rapid internalization
